{"source": "patent US20230250157A1", "about": "(CALIFORNIA INSTITUTE OF TECHNOLOGY, published 2023)", "target": "SARS-CoV-2 WA1 D614G spike on pseudovirus (SARS-CoV-2 WA1, UniProt P0DTC2 14-1252)", "assay": "cell-based or functional assay", "data": [{"binder": "M8a-3 (antibody, V domains shown) VH: QVQLQQPGAELVLPGASVKLSCKASGYTFTNYWMHWVKQRPGHGLEWIGEIDPFDTYIKINQKFKGKSTLTVDTSSSTAYMQLSSLTSEDSAVYYCARPDSSGYPVYFDYWGQGTTLTVSS VL: DIVMTQSHKFMSTSVGDRVSITCKASQDVGTYIAWYQQKPGQSPKLLIYWASTRHTGVPDRFTGSGSGTNYTLTISSVQAEDLALYHCQQHYSTPYTFGGGTKLEIK", "values": [{"measurement": "pseudovirus neutralization IC50", "result": 0.18, "unit": "µg/mL"}]}]}
